Results: patent publication US20240166695A1 (University of California, published 2024)

Legend:
TRPV1 = experiment: cell-based or functional assay
ARD of TRPV1 = target: T1, ARD of TRPV1 (Rattus norvegicus (Rat), UniProt O35433 101-364); experiment: SPR steady state, ARD immobilised on CM5 chip, design as analyte, 25 C
T1 construct: Purified from E. coli and immobilised on a CM5 chip by amine coupling; also called TRPV1 ARD; ankyrin repeat-like domain
T1 sequence (O35433 other isoform, or with tags, fused parts or gaps limits assumed): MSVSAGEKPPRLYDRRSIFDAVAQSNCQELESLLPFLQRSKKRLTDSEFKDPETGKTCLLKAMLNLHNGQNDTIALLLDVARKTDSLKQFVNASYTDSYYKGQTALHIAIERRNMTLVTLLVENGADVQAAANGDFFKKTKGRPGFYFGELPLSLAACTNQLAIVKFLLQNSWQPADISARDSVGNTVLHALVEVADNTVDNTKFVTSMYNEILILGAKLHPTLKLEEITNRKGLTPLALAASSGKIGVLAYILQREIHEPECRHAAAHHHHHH
Description: The purified ARD was immobilized on the CM5 SPR sensor chip by an amine-coupling procedure. SPR experiments were conducted on the Biacore T3000 instrument (GE healthcare). The designed proteins were perfused as analytes. Steady-state SPR responses were measured and used to determine the KD values. In all experiments, the analysis was performed at 25° C., with an association time of 120 see at a flow rate of 20 μL/min.

B1: De1 (designed binder)
chain: NGYSSEDKLRIAKRHLLPKQIERNALKKGELFVSEFAILGIILFYTDEAGVRGLEREISKLCRKAVKQLLLDKSTTSSHASGFHLHDYLGVMR
notes: For SPR: expressed from pET-32a in E. coli BL21(DE3), purified on a Ni column and by HPLC; also called Del; designed protein De1
TRPV1
  EC50 of capsaicin activation of TRPV1 co-expressed with De1 (whole-cell patch clamp): 50.9 nM
ARD of TRPV1
  Kd: 26.5 nM
